Where a chain is given by its changes, count along the chain named.
T1: cell surface expressed human PAR-2 (human, UniProt P55085 25-397)
T1 sequence: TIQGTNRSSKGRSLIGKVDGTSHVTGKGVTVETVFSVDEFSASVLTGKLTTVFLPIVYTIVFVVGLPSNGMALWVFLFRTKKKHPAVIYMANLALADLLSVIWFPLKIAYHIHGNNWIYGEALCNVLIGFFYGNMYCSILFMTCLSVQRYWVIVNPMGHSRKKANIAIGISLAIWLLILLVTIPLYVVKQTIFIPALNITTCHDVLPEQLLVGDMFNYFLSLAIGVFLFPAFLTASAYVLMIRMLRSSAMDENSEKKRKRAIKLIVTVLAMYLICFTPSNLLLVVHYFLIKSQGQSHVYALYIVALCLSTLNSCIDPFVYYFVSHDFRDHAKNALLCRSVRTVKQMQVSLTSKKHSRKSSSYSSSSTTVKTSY

B1: anti-PAR-2 antibody 1A1 (antibody, V domains shown)
VH: EVQLVQSGAEVKKPGESLKISCKGSGYNFISHWIGWVRQMPGKGLEWMGMIYPGDSDTRYSPSFQGQVTISADKSINTAYLQWRSLKASDTAMYFCARHGGITGTTFYYDFGMDVWGQGTTVTVSS
VL: SYELTQPPSVSVSPGQTARITCSGDALPKQYASWYQQKPGQAPLLVIYRDSERPSGLPERFSGSSSGTTVTLTISGVQAEDEADYYCQSADSGGSYVFGTGTKVTVL
notes: Human antibody from a XenoMouse hybridoma; also called monoclonal antibody 1A1
B2: anti-PAR-2 antibody 1B5 (antibody, V domains shown)
VH: EVQLVQSGAEVKKSGESLKISCKGSGYSFSNYWIGWVRQMPGKGLEWMGIIYPGDSDTRYSPSFQGQVTISADKSIRTAYLQWSSLKASDTAMYYCARHKGITGTTFYYDYGMDVWGQGTTVTVSS
VL: B1 VL with D25E, L44V, S51T, L57I, G93N, S95A, K103R
notes: Human antibody from a XenoMouse hybridoma
B3: anti-PAR-2 antibody 1C7 (antibody, V domains shown)
VH: B2 VH with S14P, S30T, N31S
VL: B1 VL with D25E, L44V, R49K, L57I, G93N, S95A
notes: as for B2
B4: anti-PAR-2 antibody 2C6 (antibody, V domains shown)
VH: QVQLVQSGAEVKKPGASVKVSCKASGYTFTGYFFHWVRQAPGQGLEWVGWINPNSGATHFAQKFQGRVTMTRDTSISTAYMELSRLRSDDTAVYYCARDGSNWNRDYGMDVWGQGTTVTVSS
VL: QSVLTQPPSASGTPGQRVTISCSGSSSNIGINHVYWYQQLPGTAPKIFIYRNNQRPSGVPDRFSGSKSGTSASLAISGLRSEDEADYYCAVWDDSLSGVVFGGGTKLTVLG
B5: anti-PAR-2 antibody 12D5 (antibody, V domains shown)
VH: QVQLQQSGPGLVKPSQTLSLTCAISGDSVSSNRAAWNWIRQSPSRGLEWLGRTYYRSKWYNDFAVSVRSRITITPDTSKNQFSLQLNSVTPEDTAVYYCARDRNSGYYYYGLDVWGQGTTVTVSS
VL: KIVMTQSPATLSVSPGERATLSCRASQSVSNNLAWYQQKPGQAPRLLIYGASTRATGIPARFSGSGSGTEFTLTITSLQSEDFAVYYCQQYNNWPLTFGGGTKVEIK
B6: anti-PAR-2 antibody 13F2 (antibody, V domains shown)
VH: B5 VH with F63H, R68K, T94K
VL: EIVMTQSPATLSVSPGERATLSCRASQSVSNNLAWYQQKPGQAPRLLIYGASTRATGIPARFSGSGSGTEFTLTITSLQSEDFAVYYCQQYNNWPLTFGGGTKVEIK
B7: anti-PAR-2 antibody 9B12 (antibody, V domains shown)
VH: QVQLVESGGGVVQPGRSLRLSCAASGFTFSSYGMHWVRQAPGKGLEWVAVIWYDGSNKYYADSVKGRFTISRDNSKNTLYLQMNSLRAEDTAVYYCARDLGAAAGTGFDYWGQGTLVTVSS
VL: QSVLTQPPSVSAAPGQKVTISCSGSSSNIGNNYVSWYQQLPGTAPKLLIYDNNKRPSGIPDRFSGSKSGTSATLGITGLQTGDEADYYCGTWDSSLSAGVVFGGGTKLTVL

Target: T2, clipped N-terminal PAR-2/Fc polypeptide (human)
T2 construct: also called truncated amino-terminal PAR-2-Fc; cleaved PAR-2/Fc
Assay: Western blot; by the footnote, an upstream binder binds only the full-length PAR-2/Fc
Source text: To analyze binding to uncleaved versus cleaved PAR-2, various amounts of purified uncleaved and clipped N-terminal PAR2-Fc are subjected to SDS-PAGE using 8-16% polyacrylamide gradient gels (Novex gels, Invitrogen Life Technologies) in a Tris-Glycine buffer system. Gel lanes containing See Blue standards (Novex, Invitrogen Life Technologies) for molecular weight identification are also included. Following electrophoresis, proteins are transferred from gels onto nitrocellulose membranes using a Novex XCell II Blot Module (Invitrogen Life Technologies). Membranes are blocked with 1:1, Odyssey blocking buffer, OBB, (LI-COR Biosciences):TBS (Tris Buffer Saline) overnight at 4 C with shaking. Antibodies to be analyzed are diluted in 1:1 OBB:TBS at a desired final concentration for 1 hr at room temperature. Membranes are washed extensively with 0.1% Tween 20 in TBS (3-4 changes of 100 ml over ˜1 hr). Membranes are then exposed to the appropriate secondary antibody-Alexa680 (Molecular Probes, Invitrogen Life Technologies) conjugate (goat anti-rabbit IgG, or goat anti-mouse IgG) diluted 1:5000 in 1:1 (OBB:TBS) for 1 hr at room temperature. Membranes are washed as described above, and if desired, analyzed using a LI-COR Odyssey Infrared Imaging System (LI-COR Biosciences).
Several PAR-2 antibodies were tested in different assay formats; Table 2 summarizes the results. IC₅₀ values were determined in a FLIPR assay for Ca2+ mobilization described previously; binding to the upstream region of the cleavage site versus the downstream region of the cleavage site was determined using the Western blot assay described previously.

binding result	Binder
no binding	B1
no binding	B2
no binding	B3

Target: T1, cell surface expressed human PAR-2
Assay: KinExA, cells expressing human PAR-2, averaged for N=5 experiments; antibody 1A1; N=5 experiments
Source text: This example describes the analysis of the binding properties of PAR-2 antigen-binding proteins to cell surface expressed PAR-2 utilizing a Kinetic Exclusion Assay which measures binding events in solution phase and can be used to calculate KD, Kₒₙ and Koff (KinExA®; Sapidyne Instruments, Boise, Id.), substantially as described previously by Xie et. al. J. Imm, Methods 304:1 (2005) and Rathanaswami et. al. Anal. Biochem. 373:52 (2008). Briefly, serial dilutions of cells expressing human PAR-2 (for example, CHO transfectants expressing human PAR-2 at the cell surface, obtainable by transfecting CHO cells with human full length PAR-2 cDNA encoding a polypeptide of SEQ ID NO:2) and control cells (i.e., non-transfected CHO cells) in a modified DMEM medium (phenol red free containing 10% heat inactivated FBS, 0.1 mM MEM non-essential amino acids, 1 mM sodium pyruvate, penicillin-streptomycin-glutamine, and 0.025% (w/w) sodium azide) are incubated with set amounts of antibody for 24 to 36 hours at 4 C with rotation. […] The free mAb is measured by KinExA® using the appropriate capture beads and Cy5-conjugated anti-human secondary antibodies, as described by Rathanaswami et al. Biochem Biophys Research Commun:1004 (2005). […]
The KD of certain PAR-2 antibodies was determined in this manner.

Kd [nM]	Binder
0.0628	B1

Target: PAR-2 (on the cells of the FLIPR Ca2+ mobilization assay)
Sequence (P55085 whole entry): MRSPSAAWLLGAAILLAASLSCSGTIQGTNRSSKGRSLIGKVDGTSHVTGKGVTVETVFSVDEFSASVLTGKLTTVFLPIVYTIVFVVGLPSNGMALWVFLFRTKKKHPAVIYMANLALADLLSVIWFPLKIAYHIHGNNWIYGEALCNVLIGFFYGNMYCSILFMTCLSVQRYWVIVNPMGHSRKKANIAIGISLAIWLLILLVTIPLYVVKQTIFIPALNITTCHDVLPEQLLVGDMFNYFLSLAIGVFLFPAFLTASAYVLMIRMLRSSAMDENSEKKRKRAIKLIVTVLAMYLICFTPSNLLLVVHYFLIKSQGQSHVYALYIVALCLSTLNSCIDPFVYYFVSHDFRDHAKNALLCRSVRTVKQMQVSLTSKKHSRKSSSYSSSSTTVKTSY
Assay: cell-based or functional assay

IC50, FLIPR assay for Ca2+ mobilization [nM]	Binder
> 1000	B4
2	B1
3	B2
3	B3
> 1000	B5
> 1000	B6
> 1000	B7
